Data: the nanobody polyreactivity screen of Harvey et al. (2022)

Test: yeast display, Sf9 membrane polyspecificity reagent, FACS + sequencing; frameworks hold sequencing errors
Method in brief: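 Synthetic nanobody libraries on Saccharomyces cerevisiae BJ5465 were galactose-induced for 36–48 hours, stained 1 hour at 4 °C with 10% biotinylated, detergent-solubilized Sf9 membrane reagent and enriched on streptavidin microbeads. FACS then separated cells into low and high (top ~1%) gates by anti-HA (expression) and streptavidin (reagent binding) fluorescence. Genes were colony-PCR amplified, MiSeq 2 × 250 sequenced and CDR-length filtered. A clone's polyreactivity label is that of its gate of origin.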

| Sequence | polyreactivity (PSR sort gate) |
| --- | --- |
| QFQLVESGGGLVQAGGSLRLSCAASGRIFYSYAMGWYRQAPGKERELVAAISRSGTSTFYADSLKGRFTISRDNAKNTVYLQMNSLKPEDTAVYYCNAVISPYVIRSEYWGQGTQVTVSS | low polyreactivity |
| QVQLVESGGGLVQAGGSLRLICAASGSIFYVNAMGWYRQEPGKERELVAGISRSGSSTYYADSVKGRFTISRDNAKNTVYLLMNSLKPEDTAVYYCNRVYQGRGWHDYWGQGTQVTVSS | high polyreactivity |
| QDQLVESGGGLVQAGGSLRLSCAASGYTFSYYAMGWYRQAPGKERELVARISWGGGSTYYADSVKGRFTISRDNAKNTVYLQMNSLKPEDTAVYYCNARDLGRDWYWPEDDYWGQGTQVTVSS | low polyreactivity |
| QVQLVESGGGLVQAGGSLRLSCAASGFTFIYYAMGWYRQAPGTERELVAAISTSGDSTYYADSVKGRFTISRDNAKNSVYLQMNSLKPEDTAVYYCNADWYPYLHEYDYWGQGTQVTVSS | low polyreactivity |
| QVQLVESGGGLVQAGGSLRLSCAASGLIFEYYAMGWYRQAPGKERELVAVINWSGASTYYADSVKGRFTISRDNAKNTVYLQMNSLKPEDTAVYYCAAGVLITGLRFDYWGQGTQVTVSS | low polyreactivity |
| QVQLVEAGGGLVQAGGSLRLSCAAYGRTFYTYAMGWYRQAPGKEREFVAAITWSGGSTYYADSVKGRFTISRDNAKNTVYLQMNSLKPEDPAVYYCAAGSRFRYSPGQSYEYGYWGQGTQVTVSS | low polyreactivity |
| QVQLVESGGGLVQAGGSLRLSCAASGSILSAYAMGWSRQAPGKERELVAAISWSGGSTYYADSVKGRFTISRDNAKNTVYLQMNSLKPEDTAVYYCATVNKKWRRYDYWGQGTQVTVSS | high polyreactivity |
| QVQLVESGGGLVQAGGSLRLSCAASGRTFTFYAMGWYRQAPGKERELVAAISTRGGRTYYADSVKGRFTISRDNAKNTVYLQMNSLKPEDTAVYYCAARARRRYYYWGQGTQVTVSS | high polyreactivity |
| QVQIVESGGGLVQAGGSLRLSCAASGRISKFYTMGWYRQAPGKERELVADISYSGGSTYYADSVKGRFTISRDIEKNTVYLQMNSLKPEDTAVYFCSVDGLQRAIDYWGQGTQVTVSS | high polyreactivity |
| QVQLVESGGGLVQAGGSLRLSCAASGSTFLLNAMGWYRQAPGTERELVAAITSSGGTNYADSVKGRFTISRDNAKNTVYLQMNSLKPEDTAVYYCAKDQERVTKGRFYLLEYYWGQGTQVTVSS | low polyreactivity |
| QVQLVESGGGLLQAGGSLSLSCAASGSIFVTNAMGWYRQAPGKERELVAAISVSGGSTYYADSVKGRFTISRDNAKYTVYLQMNSLKPEDTAVYYCNTVRSPPGHDYWGQGTQVTLSS | low polyreactivity |
| QVHLVESGGGLVQAGGSLRLSCAASGITFYRNAMGWYRQPRGKEMELVAAITWNGGRTYYADSVKGRFTISRDNAKNTVYLQMNSLKPEDTAVYYCAADSGSRNLASYRYYSWGQGTQVTVSS | low polyreactivity |
| QVQLVESGGGLVQAGGSLRLSCAASGFTISPYAMGWYRQAPGKERELVAVISKSSTRTYYADSVKGRFTISRDTAKNTVYLQMNSLKPEDTAVYYCNAGWNFVSGYYYWGQGTQVTVSS | high polyreactivity |
| QVQLVESGGGLVQSGGSLRLSSAAYGFIFPGNAMGWSRQAPGKEREMVAAISNSGSRTYYADSVKGRFTISRDHAKNTVYLQMNSLKPEDTAVYYCNADVHNRGWPYDYWGQGTQVTVSS | low polyreactivity |
| QVQLVESGGGLVQAGGSLRLSCAASGSTFGSYAMGWYRQAPGKERELVASISLSDGSTYADSVKGRFTISRDNAKNTVYLQMNSLKQEDTAVYYCNVDWFSHDSDYYSFAYDYWGQGTQVTVSS | high polyreactivity |
| QVQLVESGGGLVQAGGSLRLSCAASGRIFGFYAMGWSRQAPGKERELVPGITGSGDGTYADSVKGRFTISRDNAKNTVYLQMNSLKPEDTAVYYCAADYAVGKHWRYGTYRGHYWGQGTQVTVSS | low polyreactivity |
| QVQLVESGGGLVQAGGSLRLSCAASGSIFTWYAMGWYRQAPGKERELVAAITRGGSTYADSVKGRFTISRDNAKNTVYLQMNSLKPEDTAVYYCNAVYGVYDFNYWGHGTQVTVSS | low polyreactivity |
| QFQLVESGGGLVQAGVSLRLSCAASGSTFYYGMVCSRHAPRKERELVAAISSRGGTTYYADSVKGRFTISRDNAKNTVYLQMNSLKPEDTAVYYCAAPVPYYVPSRNEGDYWGQGTQVTVSS | low polyreactivity |
| QVQLVESGGGLVQAGGSLRLSCAASGLIFLTYARGWYRQAPGKERELVATISGSTGGTYYADSVKGRFTISRDNAKNTVYLQMNSLKPEDTAVYYCNASVFQSEYDYWGQGTQVTVSS | low polyreactivity |
| QVQLVESGGGLVQAGGSLRLSCAASGSIFGWNAMGWYRQAPGKERELVASITWSGGRTYYADSVKGRFTISRDNAKNTVYLQMNSLKPEDTAVYYCAARGYTVWDDYWGQGTQVTVSS | high polyreactivity |
| QVQLVESGGGLVQAGGSLRLSCAASGSIFTKYAMGWYRQAPGKERELVAAISKTGGSTYYADSVKGRFTISRDTAKNTVYLQMNSLKPEDTAVYYCNAAGGYSVYKRGRDYWGQGTQVTGSS | high polyreactivity |
| QVQLVESGGGLVQAGGSLRLSCAASGSIIAANAMGWYRQAPGKERELVAAITFDSGSTHYADSVKGRFTISRDNAKNTFYLQMNSLKPEDTAVYYCAVRDFNSDYDDWGQGTQVTVSS | low polyreactivity |

| Sequence | polyreactivity (PSR sort gate) |
| --- | --- |
| QLQLVESAGGLVQAGGSLRLSCAASGIIFSYYAMGWYRKAPGKERELVAAISWSGGSTYYADSVKGRFTISRDNAKNTVYLQLNSLKPEDTAVYYCAADDYLAYEYWGQGTQVTVSS | high polyreactivity |
| QVQLVESGGGLVQAGGSLRLSCAASGSIFSSNAMGWYRPAPGKERELVAAITSGGSTTYADSVKGRFTISRDNAKNTVYLQMNSLKPEDTAVYYCNARNYYYPSDRDYWGQGTQVTVSS | low polyreactivity |
| QDQLVESGGGLVQAGGSLRLSCAASVRIFWLYAMGWYRQAPGKERELVAVISWSGGTTYYADSVKGRFTISRDNAKNTVYLQMNSLKPEDTAVYSCAAQVGFYTNYREFDYWGQGTQVTVSS | low polyreactivity |
| QVQLVESGGGLVQAGGSLRLSCPASGLIFRRNVMGRYRQAPGKERELVAAISRGGSTYNADSVKGRFTISRDNAKNTVFLQMNSLNPEDTAVYYCAAAYTRYVVRGDFWGQGTQVTVSS | high polyreactivity |
| QVQLVESGGGLVQAGGSLRLSCAASGIIFTDNAMGWYRQAPGKARELVATISWSTDNTYYADSVKGRFTISRDNAKNTVYLQMNSLKPEDTAVYYCAAGWQIIQGSQYDYWGQGTQVTVSS | low polyreactivity |
| QVQLVESGGGLVQAGGSLRLSCAASGYIFIVNAMGSYRQAPGKERELVAAITDRGGSTYYADSVKGRFTISRDNAKNTVYLQMNSLKPEVTAVYYCAAELVHRLWYRDVHFDYWGQGTQVTVSS | low polyreactivity |
| QVQLVESGGGLVQAGGSLRLSCAASGSIFSINARGWYRQAPGKERELVAAITYSTGSTYYADSVKGRFTISRDNAKNTVYLQMNSLKPEDTAVYYCAAVYKRTYLHSQTYGYYYWGQGTQVTVSS | high polyreactivity |
| QVQLVESGGGLVQAGGSLRLSCAASGSTFRYNTMGWYRQAPGKERELVAAINISSSSTYYADSVKGRFTISRDNAKNTVYLQMNSLKPEDTAVYYCAKRDYVPIATDENDDYWGQGTQVTVSS | low polyreactivity |
| QVQLVESGGGLVQAGGSLRLSCAASGRIFEIYALGWYRQAPGKERELVAAISWRGVSTYYADSVKGRFTISRDNAKNTVYLQMKSLKPEDTAVYYCNKDVDYFWYVEYDYWGQGTQVTVSS | low polyreactivity |
| QVQLVESGGGLVQAGGSLRLSCAASGRTFRGNVMGWYRQAPGKEREFVAAITKSDGSTYYADSVKGRFTISRDIAKNTVYLQMNSLNPEDTAVDYCAARTARTGWPWFRFDYWGQGTQVTVSS | low polyreactivity |
| QVQLVESGGGLVQAGGRLRLSCAASGRTFYWYAMGWYRQAPGKETELVAAISSGGSTYYADSVKGRFTISRDNAKNTVYLQMNSLKPEDTAVYYCAAVTPSGAHRSAYHPISDYWGQGTQVTVSS | low polyreactivity |
| QVQLVESGGGLVQAGGSLRLSCAASGSTFTPYAMGWYRQAPGKERELVAAISWSDDSTYYADSVKGRFTISRDNAKNTVYLQMNSLKPEDTAVYYCAASAYVDYGVYTYIMDYWGQGTQVTVSS | high polyreactivity |
| QVQLVESGGGLVQAGGSLRLSCAASGRTLSGYAMGWYRQAPGKERELVAVITSGGSTYYADSVKGRFTISRDNAKNTVYLQMNSVKPEDTAVYYCSARRGRRLQDSQYWGQGTQVTVSS | high polyreactivity |
| QVQLVESGGGLVQAGGRLRLSCAASGRIFYGNAMGRYRPAPVKERELVATISSSGGSTTYADSVKGRFTISRDNAKYTVYLQMNSLKPEDSAVYYCADQGYWTGYDYWGQGSQVTVSS | high polyreactivity |
| QVQLVESGGGLVQAGGSLRLSCAASGSTTYAMGWYRQAPVKERELVAGITFSGGSTNYADSVKGRFTISRDNAKNTVYLQMNSLKPEDTAVYYCAAKLWHHSYRYDYWGQGTQVTVSS | low polyreactivity |
| QVQLVESGGGLVQAGGSLRLSCAASGYIFNPNAMGWYRQAPGKERELVAAITWSGGNTYYADSVKGRFTISRDNAKNTVYLQMNSLKPEDTAVFYCNAEYRWPYWGQWYFKGYDYWGQGTQVTVSS | low polyreactivity |
| QVQLVESGGGLVQAGGSLRLSCAASGSIFVVNGMGWYRQAPGKERELVAAITGDGTTYYADSVKGRFTISRDNAKNTVYLQMNSLKPEDSAVYYCAALFTPALSEYDYWGQGTQVTVSS | high polyreactivity |
| QVQLVESGGGLVQAGGSLRLSCAASGSTFVVYAMGWYRQAPGKERELVARITLSDGSTNYADSVKGRFTISRDNAKNTVYLQMNSLKPEDTAVYYCAAEVVPFYYFWFDYWGQGTQVTVSS | low polyreactivity |
| QVQLVESGGGLVQAGGSLRLSCAASGSNFYLYAMGWYRQAPGKERELVAAITSIGGSTYADSVKGRFTISRDNAKNTVYLQMNSLKPEDTAVYYCNTDEYPLTVQVQYYYWGQGTQVTVSS | low polyreactivity |
| QVQLVESGGGLVQAGGSLRLSCAASGSTFYYYAMGWYRQAPGKERELVAAIDWSGESTYYADSVKGRFTISRDNAKNTVYLQMNSLKPEDTAVYYCAAVRSAQRWRRYYYWGQGTQVTVSS | low polyreactivity |
| QVQLVESGGGLVQAGGSLRLSCAASGIIFRRYAMGWYRQAPGKERELVAAIRTSGGNTYYADSVKRRFTISRDNAKNTVYLQMNSLKPEDTAVYYCAARKYHYRYGYWGQGTQVTVSS | high polyreactivity |
